This passage reports binding result and Kd results from patent US20170306037A1 (Novartis, published 2017).

Where a chain is given by its changes, count along the chain named.

Experiment [1] has as its target T1, rat GITR extracellular domain (rat, UniProt F7FFS7 65-198).
T1 construct: also called rodent GITR
T1 sequence: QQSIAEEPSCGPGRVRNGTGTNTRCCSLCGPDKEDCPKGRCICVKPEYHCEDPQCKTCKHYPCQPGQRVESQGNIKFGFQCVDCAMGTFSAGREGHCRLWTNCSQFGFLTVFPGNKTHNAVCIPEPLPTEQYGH
Description: ELISA on coated GITR ECD. As for the experimental part:
(§1) The plate was blocked with a solution of 1% BSA in PBS for one hour at room temperature and then rinsed three times with PBST. The MAB was then diluted to 0.5 μg/mL or 1 μg/mL in PBS and 20 μL was added to each well. The plate was incubated for 1 hour at room temperature and then washed three times with PBST. […] The plate was incubated for 1 hour at room temperature, and then washed six times with PBST. 25 μL of SureBlue TMB (KPL 52-00-02) substrate was added to each well and the plate was incubated for about 10 min at room temperature.
For orientation: In an ELISA, binding on a coated surface is turned into a signal by an enzyme label.

Experiment [2] has as its target T2, mouse GITR extracellular domain (mouse, UniProt O35714 20-153).
T2 construct: extracellular domain; also called murine GITR; rodent GITR
T2 sequence (looked up): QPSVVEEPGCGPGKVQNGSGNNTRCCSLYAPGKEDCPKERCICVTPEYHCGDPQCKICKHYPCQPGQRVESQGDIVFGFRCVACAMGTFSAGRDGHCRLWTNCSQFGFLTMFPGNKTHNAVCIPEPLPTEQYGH
Briefly: ELISA on coated GITR ECD. The protocol: as §1

The target of experiment [3] is T3, human GITR (hGITR), form not stated (human, UniProt Q9Y5U5 26-162, limits assumed).
T3 construct: the construct is not described
T3 sequence: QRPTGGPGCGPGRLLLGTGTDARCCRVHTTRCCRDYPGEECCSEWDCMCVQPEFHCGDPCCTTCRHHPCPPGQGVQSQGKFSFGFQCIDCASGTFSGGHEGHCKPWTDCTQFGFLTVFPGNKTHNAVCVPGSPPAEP
Description: Biacore (SPR), IgG.

B1: MAB4 (IgG1 kappa) (antibody, V domains shown)
VH: EVQLVESGGGLVQSGGSLRLSCAASGFSLSSYGVDWVRQAPGKGLEWVGVIWGGGGTYYASSLMGRFTISRDNSKNTLYLQMNSLRAEDTAVYYCAKHAYGHDGGFAMDYWGQGTLVTVSS
VL: EIVMTQSPATLSVSPGERATLSCRASESVSSNVAWYQQRPGQAPRLLIYGASNRATGIPARFSGSGSGTDFTLTISRLEPEDFAVYYCGQSYSYPFTFGQGTKLEIKR
By Kd is commonly meant the equilibrium constant for the complex coming apart. Read a high Kd as a looser complex. As for B1, the binding result in experiment [1] and in experiment [2] was “no binding (tested: not on the sheet; paragraph 336: 0.5 or 1 µg/mL)” in each case. Also, the Kd in experiment [3] was found to be 0.684 nM.

B2: MAB5 (IgG1 kappa) (antibody, V domains shown)
VH: B1 VH with V48L, A60T
VL: B1 VL
notes: also called MABS (misprint of MAB5)
For the molecule B2, the binding result in experiment [1] and in experiment [2] was “no binding (tested: not on the sheet; paragraph 336: 0.5 or 1 µg/mL)” throughout. Besides, in experiment [3], binding was characterised by a dissociation constant (Kd) of 0.973 nM.
